In patent US20100221257A1 (AstraZeneca / MedImmune, published 2010):
Substitutions are numbered along the chain they refer to. One block for each binder: values may come before it.

What was measured:
[1] = biological target: T1, human IL-1R1, endogenous on human cells (HeLa cells; whole blood) (human, UniProt P14778 18-569); assay: cell-based or functional assay
T1 sequence (looked up): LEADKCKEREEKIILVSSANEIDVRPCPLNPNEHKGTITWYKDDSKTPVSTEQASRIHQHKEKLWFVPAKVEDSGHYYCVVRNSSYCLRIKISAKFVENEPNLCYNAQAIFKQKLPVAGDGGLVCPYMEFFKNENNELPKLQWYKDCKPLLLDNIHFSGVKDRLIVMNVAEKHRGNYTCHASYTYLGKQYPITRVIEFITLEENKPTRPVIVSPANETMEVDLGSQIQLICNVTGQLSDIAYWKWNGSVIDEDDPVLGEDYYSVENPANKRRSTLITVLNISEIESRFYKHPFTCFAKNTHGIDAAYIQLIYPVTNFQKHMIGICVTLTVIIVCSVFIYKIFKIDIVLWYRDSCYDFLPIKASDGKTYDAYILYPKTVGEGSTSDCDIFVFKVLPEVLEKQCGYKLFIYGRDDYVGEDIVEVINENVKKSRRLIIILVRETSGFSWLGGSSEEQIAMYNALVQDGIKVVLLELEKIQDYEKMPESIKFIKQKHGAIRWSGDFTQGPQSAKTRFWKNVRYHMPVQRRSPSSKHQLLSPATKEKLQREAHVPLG

[2] = biological target: T2, human histidine tagged (HIS) IL1RFc fusion protein (human); assay: HTRF receptor-ligand assay, IgG inhibiting HIS FLAG IL-1Ra binding to cryptate labelled human HIS IL1RFc
T2 construct: Biotinylated or cryptate labelled in some assays; also called human HIS IL1RFc; huIL-1R1-Fc
Experimental: The ability of lead antibodies to inhibit IL-1Ra to IL-1R1 was assessed in a receptor-ligand binding HTRF® (Homogeneous Time-Resolved Fluorescence) assay format for inhibition of HIS FLAG tagged human IL1Ra (In house, E. Coli expressed; HIS FLAG IL-1RA) binding to human histidine tagged (HIS) IL1RFc fusion protein (in house), as described in the Materials and methods section.
A titration of inhibitor was used in order to establish the clone potency as measured by IC₅₀ values in the assay. All dilutions were carried out in assay buffer as for ligand binding assay above. 5 μl of a titration of inhibitor was added to a 384 well low volume assay plate (Costar 3676). This was then followed by addition of 0.4 nM cryptate labelled HIS IL1RFc. Assay plates were then sealed and incubated at room temperature in dark for 1 hour.

[3] = biological target: T1, human IL-1R1, endogenous on human cells …; assay: cell-based or functional assay; remark: listed apart in the source
[4] = biological target: T3, cynomolgus IL-1R1, endogenous on CYNOM-K1 cells (cynomolgus monkey, UniProt A0A7N9CMI5 18-569); assay: cell-based or functional assay
T3 sequence: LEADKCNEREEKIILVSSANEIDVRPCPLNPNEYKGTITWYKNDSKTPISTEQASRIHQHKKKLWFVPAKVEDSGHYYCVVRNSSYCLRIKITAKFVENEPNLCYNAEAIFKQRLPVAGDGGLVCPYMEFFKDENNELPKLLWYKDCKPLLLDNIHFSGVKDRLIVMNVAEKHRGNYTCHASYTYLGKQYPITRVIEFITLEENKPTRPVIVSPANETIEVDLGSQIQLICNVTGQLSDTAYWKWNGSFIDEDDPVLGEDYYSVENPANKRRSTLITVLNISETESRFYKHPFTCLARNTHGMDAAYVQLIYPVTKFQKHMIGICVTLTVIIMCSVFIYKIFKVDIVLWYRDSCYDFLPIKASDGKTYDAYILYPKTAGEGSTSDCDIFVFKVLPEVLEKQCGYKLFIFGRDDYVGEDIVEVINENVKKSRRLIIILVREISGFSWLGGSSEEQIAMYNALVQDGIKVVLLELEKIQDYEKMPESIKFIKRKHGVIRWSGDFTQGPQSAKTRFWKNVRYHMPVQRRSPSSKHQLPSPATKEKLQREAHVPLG

[5] = biological target: Antibody 6 (Eu3+ cryptate labelled, Example 5); assay: HTRF competition: unlabelled test protein against biotin labelled human IL-1R1/Fc binding to cryptate labelled antibody
Experimental: (§1) Antibody was cryptate labelled with Eu³′ Cryptate labelling kit according to the manufacturer's instructions (CisBio International Cat No. 62EUSPEA) and IL-1R1/Fc (SEQ ID NO: 134, see Material and Methods) was Biotin labelled with EZ Link Sulfo-NHS-Biotin (Perbio Cat No. 21335) according to the manufacturer's instructions. Assay conditions were 0.25 nM Cryptate labelled antibody, 0.3 nM biotin labelled IL-1R1/Fc, 2.5 nM streptavidin XL^{ent!} (CisBio International Cat. No. 611SAXLB) in 1×D-PBS, 0.1% BSA, 0.4M potassium fluoride in a total volume of […] in a 384 well shallow well costar plate (3676). To the assay a dilution series (from maximum of 100 nM to 0.0017 nM) of test proteins was added and the assay incubated for 3 hours at room temperature. FRET signal was detected using a PerkinElmer EnVision plate reader using a 320 nm excitation filter and 620 nm and 665 nm emission filters. Results were calculated from the 665/620 ratio as a percentage of specific binding (signal with no competitor antigen). Results were analysed with Prism (GraphPad Software) using the sigmoidal dose response model.
Antibody binding of chimeric molecules was tested in an HTRF (Homogeneous Time Resolved Fluorescence) competition assay. Molecules which bound antibody at the same paratope as human IL-1R1 inhibited the binding interaction, leading to a reduction in signal. From inhibition curves IC₅₀ values for human IL-1R1, mouse IL-1R1 and chimeric molecules were calculated (Table 12). […] Chimeras that gave similar IC₅₀ values to native human IL-1R1 still contained the epitope.

[6] = biological target: Antibody 6 (Eu3+ cryptate labelled, Example 5); assay: HTRF competition assay, against human IL-1R1 as reference
Experimental: as §1
Antibody binding of chimeric molecules was tested in an HTRF (Homogeneous Time Resolved Fluorescence) competition assay. […] From inhibition curves IC₅₀ values for human IL-1R1, mouse IL-1R1 and chimeric molecules were calculated (Table 12). […]

B1: Antibody 1 IgG1 (antibody, V domains shown)
VH: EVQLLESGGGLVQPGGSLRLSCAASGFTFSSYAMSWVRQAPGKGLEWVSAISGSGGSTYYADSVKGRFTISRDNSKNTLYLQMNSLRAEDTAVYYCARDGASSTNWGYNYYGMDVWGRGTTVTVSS
VL: QAVLTQPSSASGTPGQRVTISCSGSSSNIGSNYVFWYQQFPGTAPQLLVKWNNQRPSGVPDRFSGSKSGTSASLAISGLRSEDEADYYCAAWDDSLSGLVFGGGTKLTVL
IC50, inhibition of human IL-1β induced IL-8 release from HeLa cells [1]: 95.9 nM

B2: Antibody 2 IgG1 (antibody, V domains shown)
VH: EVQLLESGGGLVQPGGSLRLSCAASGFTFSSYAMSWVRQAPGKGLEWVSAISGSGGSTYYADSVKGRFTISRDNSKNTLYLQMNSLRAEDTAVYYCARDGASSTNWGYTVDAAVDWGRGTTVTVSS
VL: B1 VL with S95H, S97E, G98Q, V100H
notes: Non-germlined IgG1, lambda light chain
IC50 [2]: 0.256 nM
IC50, inhibition of IL-1 beta induced IL-8 release in HeLa cells (IgG1) [3]: 0.0775 nM

B3: Antibody 3 IgG1 (antibody, V domains shown)
VH: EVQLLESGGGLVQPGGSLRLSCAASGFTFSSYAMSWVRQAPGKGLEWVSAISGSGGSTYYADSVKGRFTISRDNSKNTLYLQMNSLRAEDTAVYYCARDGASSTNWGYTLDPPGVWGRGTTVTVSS
VL: B1 VL with S95A, L96A, S97R, G98V, V100L
notes: as for B2
IC50 [2]: 0.469 nM
IC50, inhibition of IL-1 beta induced IL-8 release in HeLa cells (IgG1) [3]: 0.0494 nM

B5: Antibody 8 IgG1 (antibody, V domains shown)
VH: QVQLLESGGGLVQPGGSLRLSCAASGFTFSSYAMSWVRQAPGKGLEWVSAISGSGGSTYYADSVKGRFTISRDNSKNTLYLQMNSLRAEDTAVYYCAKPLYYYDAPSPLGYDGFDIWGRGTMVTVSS
VL: QSVLTQPPSVSGAPGQRVTISCTGSSSNIGAGYDVHWYQQLPGTAPKLLIYGDTHRPSGVPDRFSGSKSGTSASLVIAGLQAEDEADYYCQSYDTHLVAHVFGGGTKLTVL
notes: as for B2
IC50 [2]: 0.156 nM
IC50, inhibition of IL-1 beta induced IL-8 release in HeLa cells (IgG1) [3]: 0.0293 nM

B6: Antibody 4 IgG1 (antibody, V domains shown)
VH: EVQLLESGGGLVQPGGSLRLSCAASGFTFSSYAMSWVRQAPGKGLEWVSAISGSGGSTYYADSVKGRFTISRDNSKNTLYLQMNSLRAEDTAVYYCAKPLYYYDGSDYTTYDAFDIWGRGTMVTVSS
VL: B5 VL with H96S, V98S, A99G, H100S, V101L
IC50, inhibition of human IL-1β induced IL-8 release from HeLa cells [1]: 22 nM

B7: Antibody 5 IgG1 (antibody, V domains shown)
VH: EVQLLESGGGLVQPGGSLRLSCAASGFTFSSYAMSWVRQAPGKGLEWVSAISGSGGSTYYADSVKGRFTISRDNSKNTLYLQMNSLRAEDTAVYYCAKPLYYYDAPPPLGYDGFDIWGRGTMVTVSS
VL: B5 VL with H96A, L97G, V98G, A99G, V101H
notes: as for B2
IC50 [2]: 0.186 nM
IC50, inhibition of IL-1 beta induced IL-8 release in HeLa cells (IgG1) [3]: 0.032 nM

B13: MoD2c IL1R1 (Fc fusion, human;mouse, UniProt P14778 18-177, looked up, not shown: a dimerising Fc or GST)
chain: LEADKCKEREEKIILVSSANEIDVRPCPLNPNEHKGTITWYKDDSKTPVSTEQASRIHQHKEKLWFVPAKVEDSGHYYCVVRNSSYCLRIKISAKFVENEPNLCYNAQAIFKQKLPVAGDGGLVCPYMEFFKNENNELPKLQWYKDCKPLLLDNIHFSGVKDKLIVMNVAEKHRGNYTCHASYTYLGKQYPITRVIEFITLEENKPTRPVIVSPANETMEVDLGSQIQLICNVTGQLSDIAYWKWNGSVIDEDDPVLGEDYYSVENPANKRRSTLITVLNISEIESRFYKHPFTCFAKNTHGIDAAYIQLIYPVTNFQK
notes: also called chimera without loop d2-e2
fold higher IC50 than human IL-1R1 [6]: > 3 fold
IC50 [5]: 0.637 nM

More lines, now with the values ahead:

IC50 [2]: 0.1 nM
IC50, inhibition of IL-1 beta induced IL-8 release in HeLa cells (IgG1) [3]: 0.0078 nM
B4: Antibody 6 IgG1 (antibody, V domains shown)
VH: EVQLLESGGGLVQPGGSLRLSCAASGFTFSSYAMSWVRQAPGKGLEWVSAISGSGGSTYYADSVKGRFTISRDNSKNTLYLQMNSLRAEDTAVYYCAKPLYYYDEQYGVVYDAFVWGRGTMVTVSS
VL: B5 VL with H96V, L97R, V98L, A99H
notes: as for B2

IC50 [2]: 0.208 nM
IC50, inhibition of IL-1 alpha induced IL-8 release in HeLa cells (GL IgG2) [3]: 0.0162 nM
IC50, inhibition of IL-1 beta induced IL-8 release in HeLa cells (GL IgG2) [3]: 0.0069 nM
IC50, inhibition of IL-1β induced IL-8 release from CYNOM-K1 cells, experiment 1 [4]: 1.2 nM
IC50, inhibition of IL-1β induced IL-8 release from CYNOM-K1 cells, experiment 2 [4]: 1.1 nM
B8: Antibody 9GL IgG2 (antibody, V domains shown)
VH: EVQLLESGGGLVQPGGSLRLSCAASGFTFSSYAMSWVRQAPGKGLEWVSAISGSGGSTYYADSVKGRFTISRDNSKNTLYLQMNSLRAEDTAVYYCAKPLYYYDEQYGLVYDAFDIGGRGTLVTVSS
VL: B5 VL with V76A, A78T, H96L, V98L, H100P, V101Q
notes: Germlined IgG2, lambda light chain; also called 28Q1 GL

IC50 [2]: 0.168 nM
IC50, inhibition of IL-1 beta induced IL-8 release in HeLa cells (IgG1) [3]: 0.0426 nM
B9: Antibody 7 IgG1 (antibody, V domains shown)
VH: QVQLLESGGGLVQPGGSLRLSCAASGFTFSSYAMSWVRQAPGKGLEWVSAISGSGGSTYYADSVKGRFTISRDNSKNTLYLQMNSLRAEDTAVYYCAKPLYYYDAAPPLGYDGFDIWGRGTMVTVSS
VL: B5 VL with H96D, L97A, V98A, A99R, V101Q
notes: as for B2

IC50 [2]: 0.156 nM
IC50, inhibition of IL-1 beta induced IL-8 release in HeLa cells (IgG1) [3]: 0.0115 nM
B10: Antibody 9 IgG1 (antibody, V domains shown)
VH: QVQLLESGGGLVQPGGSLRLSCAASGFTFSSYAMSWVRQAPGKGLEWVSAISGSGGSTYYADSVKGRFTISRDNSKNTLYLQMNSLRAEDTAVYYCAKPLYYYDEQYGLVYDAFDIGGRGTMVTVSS
VL: B5 VL with H96L, V98L, H100P, V101Q
notes: as for B2

IC50 [5]: 0.201 nM
B11: MoD1b IL1R1 (Fc fusion, human;mouse, UniProt P14778 18-42, looked up, not shown: a dimerising Fc or GST)
chain: LEADKCKEREEKIILVSSANEIDVRKCPLTPNKMHGDTITWYKDDSKTPVSTEQASRIHQHKEKLWFVPAKVEDSGHYYCVVRNSSYCLRIKISAKFVENEPNLCYNAQAIFKQKLPVAGDGGLVCPYMEFFKNENNELPKLQWYKDCKPLLLDNIHFSGVKDRLIVMNVAEKHRGNYTCHASYTYLGKQYPITRVIEFITLEENKPTRPVIVSPANETMEVDLGSQIQLICNVTGQLSDIAYWKWNGSVIDEDDPVLGEDYYSVENPANKRRSTLITVLNISEIESRFYKHPFTCFAKNTHGIDAAYIQLIYPVTNFQK
notes: range 1-42;range 45-56;range 54-336

IC50 [5]: 0.147 nM
B12: MoD3 HuD1-D2 IL1R1 (Fc fusion, human;mouse, UniProt P14778 18-227, looked up, not shown: a dimerising Fc or GST)
chain: LEADKCKEREEKIILVSSANEIDVRPCPLNPNEHKGTITWYKDDSKTPVSTEQASRIHQHKEKLWFVPAKVEDSGHYYCVVRNSSYCLRIKISAKFVENEPNLCYNAQAIFKQKLPVAGDGGLVCPYMEFFKNENNELPKLQWYKDCKPLLLDNIHFSGVKDRLIVMNVAEKHRGNYTCHASYTYLGKQYPITRVIEFITLEENKPTRPVILSPRNETIEADPGSMIQLICNVTGQFSDLVYWKWNGSEIEWNDPFLAEDYQFVEHPSTKRKYTLITTLNISEVKSQFYRYPFICVVKNTNIFESAHVQLIYPVPDFK
notes: range 1-227;range 231-338

fold higher IC50 than human IL1R1 [6]: 26 fold
IC50 [5]: 4.6 nM
B14: MoD2a IL1R1 (Fc fusion, human;mouse, UniProt P14778 18-122, looked up, not shown: a dimerising Fc or GST)
chain: B13 chain with N106S, A107T, I110T, K112P, K114R, P116H, V117I, K163R
notes: range 1-122;range 126-137;range 135-336; also called chimera without human beta strand a2

IC50 [5]: 0.268 nM
B15: MoD3a2 IL1R1 (Fc fusion, human;mouse, UniProt P14778 18-272, looked up, not shown: a dimerising Fc or GST)
chain: B13 chain with K163R, V256F, G258A, Y262Q, S263F, N266H, A268S, N269T, R272K
notes: range 1-272;range 276-292;range 290-336

IC50 [5]: 0.337 nM
B16: MoD3b IL1R1 (Fc fusion, human;mouse, UniProt P14778 18-309, looked up, not shown: a dimerising Fc or GST)
chain: LEADKCKEREEKIILVSSANEIDVRPCPLNPNEHKGTITWYKDDSKTPVSTEQASRIHQHKEKLWFVPAKVEDSGHYYCVVRNSSYCLRIKISAKFVENEPNLCYNAQAIFKQKLPVAGDGGLVCPYMEFFKNENNELPKLQWYKDCKPLLLDNIHFSGVKDRLIVMNVAEKHRGNYTCHASYTYLGKQYPITRVIEFITLEENKPTRPVIVSPANETMEVDLGSQIQLICNVTGQLSDIAYWKWNGSVIDEDDPVLGEDYYSVENPANKRRSTLITVLNISEIESRFYKHPFICVVKNTNIFESAHVQLIYPVTNFQK
